Source: US20180071366A1
Numbered stars: 1 amine (or outer) side, 2 acyl side, 3 side chain; on linkers, the order of the positions; unused ones are H or OH. Bridge positions count the residues as written; N and C are the ends. Square brackets hold non-standard residues; d marks the D form. * marks the point of attachment. C20 diacid = O=C(O)CCCCCCCCCCCCCCCCCCC(=O)*; γGlu = O=C(O)[C@H](CCC(=O)[*:2])N[*:1]; Hyp = O=C(O)[C@@H]1C[C@@H](O)CN1; NMeI = CC[C@H](C)[C@H](NC)C(=O)O; Dap = NC[C@H](N)C(=O)O; Sar = CNCC(=O)O

Key:
[1] = biological target: recombinant human calcitonin receptor (hCT-R) (human), P30988; test: cell-based or functional assay
[2] = biological target: recombinant human amylin 3 receptor (hAMYR3) (human), P30988; test: cell-based or functional assay
Sequence of recombinant human amylin 3 receptor (hAMYR3) (human), P30988 (P30988 25-474, chain 1 of 2): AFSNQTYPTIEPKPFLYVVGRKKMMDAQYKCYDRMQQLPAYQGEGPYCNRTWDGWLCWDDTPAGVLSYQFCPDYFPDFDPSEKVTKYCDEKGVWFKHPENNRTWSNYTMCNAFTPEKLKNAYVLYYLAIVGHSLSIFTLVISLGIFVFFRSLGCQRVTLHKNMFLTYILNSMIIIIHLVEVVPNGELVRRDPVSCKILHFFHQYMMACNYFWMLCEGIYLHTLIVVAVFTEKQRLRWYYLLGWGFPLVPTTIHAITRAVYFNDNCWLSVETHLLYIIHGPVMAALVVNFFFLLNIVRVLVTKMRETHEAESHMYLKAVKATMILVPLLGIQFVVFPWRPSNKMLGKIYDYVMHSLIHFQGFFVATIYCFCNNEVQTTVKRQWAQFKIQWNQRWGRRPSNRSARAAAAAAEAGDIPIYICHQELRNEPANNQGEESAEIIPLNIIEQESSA
Sequence of recombinant human amylin 3 receptor (hAMYR3) (human), P30988 (O60896 24-148, chain 2 of 2, further chain): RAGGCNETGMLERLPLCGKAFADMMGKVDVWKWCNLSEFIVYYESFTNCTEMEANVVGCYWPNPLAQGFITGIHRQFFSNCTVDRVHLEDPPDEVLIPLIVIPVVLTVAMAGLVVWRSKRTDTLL

Sequence of recombinant human calcitonin receptor (hCT-R) (human), P30988 (P30988 25-474): as the sequence (P30988 25-474, chain 1 of 2) above

B1: Compound 41 (peptide)
peptide: {C20 diacid-γGlu}-RDGTATKATQRLADFLQRSSF[Sar]A[NMeI]LSSTEVGSNT[Hyp]-NH2
modifications: lactam 2-7
SMILES: CC[C@H](C)[C@@H](C(=O)N[C@@H](CC(C)C)C(=O)N[C@@H](CO)C(=O)N[C@@H](CO)C(=O)N[C@H](C(=O)N[C@@H](CCC(=O)O)C(=O)N[C@H](C(=O)NCC(=O)N[C@@H](CO)C(=O)N[C@@H](CC(N)=O)C(=O)N[C@H](C(=O)N1C[C@H](O)C[C@H]1C(N)=O)[C@@H](C)O)C(C)C)[C@@H](C)O)N(C)C(=O)[C@H](C)NC(=O)CN(C)C(=O)[C@H](Cc1ccccc1)NC(=O)[C@H](CO)NC(=O)[C@H](CO)NC(=O)[C@H](CCCNC(=N)N)NC(=O)[C@H](CCC(N)=O)NC(=O)[C@H](CC(C)C)NC(=O)[C@H](Cc1ccccc1)NC(=O)[C@H](CC(=O)O)NC(=O)[C@H](C)NC(=O)[C@H](CC(C)C)NC(=O)[C@H](CCCNC(=N)N)NC(=O)[C@H](CCC(N)=O)NC(=O)[C@@H](NC(=O)[C@H](C)NC(=O)[C@@H]1CCCCNC(=O)C[C@H](NC(=O)[C@H](CCCNC(=N)N)NC(=O)CC[C@H](NC(=O)CCCCCCCCCCCCCCCCCCC(=O)O)C(=O)O)C(=O)NCC(=O)N[C@@H]([C@@H](C)O)C(=O)N[C@@H](C)C(=O)N[C@@H]([C@@H](C)O)C(=O)N1)[C@@H](C)O
hCT-R EC50 [nM] (cAMP formation, 1321N1 cells expressing hCT-R) [1]: 0.095 nM | hAMYR3 EC50 [nM] (cAMP formation, 1321N1 cells expressing hAMYR3) [2]: 0.024 nM

B2: Compound 42 (peptide)
peptide: {C20 diacid-γGlu}-RDGTATKATQRLADFLQRSSF[Sar]A[NMeI]LSSTETGSNT[Hyp]-NH2
modifications: lactam 2-7
SMILES: CC[C@H](C)[C@@H](C(=O)N[C@@H](CC(C)C)C(=O)N[C@@H](CO)C(=O)N[C@@H](CO)C(=O)N[C@H](C(=O)N[C@@H](CCC(=O)O)C(=O)N[C@H](C(=O)NCC(=O)N[C@@H](CO)C(=O)N[C@@H](CC(N)=O)C(=O)N[C@H](C(=O)N1C[C@H](O)C[C@H]1C(N)=O)[C@@H](C)O)[C@@H](C)O)[C@@H](C)O)N(C)C(=O)[C@H](C)NC(=O)CN(C)C(=O)[C@H](Cc1ccccc1)NC(=O)[C@H](CO)NC(=O)[C@H](CO)NC(=O)[C@H](CCCNC(=N)N)NC(=O)[C@H](CCC(N)=O)NC(=O)[C@H](CC(C)C)NC(=O)[C@H](Cc1ccccc1)NC(=O)[C@H](CC(=O)O)NC(=O)[C@H](C)NC(=O)[C@H](CC(C)C)NC(=O)[C@H](CCCNC(=N)N)NC(=O)[C@H](CCC(N)=O)NC(=O)[C@@H](NC(=O)[C@H](C)NC(=O)[C@@H]1CCCCNC(=O)C[C@H](NC(=O)[C@H](CCCNC(=N)N)NC(=O)CC[C@H](NC(=O)CCCCCCCCCCCCCCCCCCC(=O)O)C(=O)O)C(=O)NCC(=O)N[C@@H]([C@@H](C)O)C(=O)N[C@@H](C)C(=O)N[C@@H]([C@@H](C)O)C(=O)N1)[C@@H](C)O
hCT-R EC50 [nM] (cAMP formation, 1321N1 cells expressing hCT-R) [1]: 0.006 nM | hAMYR3 EC50 [nM] (cAMP formation, 1321N1 cells expressing hAMYR3) [2]: 0.003 nM

B3: Compound 44 (peptide)
peptide: {C20 diacid-γGlu}-KDGTATKATQRLANFLQRSSF[Sar]A[NMeI]LSSTETGSNT[Hyp]-NH2
modifications: lactam 2-7
SMILES: CC[C@H](C)[C@@H](C(=O)N[C@@H](CC(C)C)C(=O)N[C@@H](CO)C(=O)N[C@@H](CO)C(=O)N[C@H](C(=O)N[C@@H](CCC(=O)O)C(=O)N[C@H](C(=O)NCC(=O)N[C@@H](CO)C(=O)N[C@@H](CC(N)=O)C(=O)N[C@H](C(=O)N1C[C@H](O)C[C@H]1C(N)=O)[C@@H](C)O)[C@@H](C)O)[C@@H](C)O)N(C)C(=O)[C@H](C)NC(=O)CN(C)C(=O)[C@H](Cc1ccccc1)NC(=O)[C@H](CO)NC(=O)[C@H](CO)NC(=O)[C@H](CCCNC(=N)N)NC(=O)[C@H](CCC(N)=O)NC(=O)[C@H](CC(C)C)NC(=O)[C@H](Cc1ccccc1)NC(=O)[C@H](CC(N)=O)NC(=O)[C@H](C)NC(=O)[C@H](CC(C)C)NC(=O)[C@H](CCCNC(=N)N)NC(=O)[C@H](CCC(N)=O)NC(=O)[C@@H](NC(=O)[C@H](C)NC(=O)[C@@H]1CCCCNC(=O)C[C@H](NC(=O)[C@H](CCCCN)NC(=O)CC[C@H](NC(=O)CCCCCCCCCCCCCCCCCCC(=O)O)C(=O)O)C(=O)NCC(=O)N[C@@H]([C@@H](C)O)C(=O)N[C@@H](C)C(=O)N[C@@H]([C@@H](C)O)C(=O)N1)[C@@H](C)O
hCT-R EC50 [nM] (cAMP formation, 1321N1 cells expressing hCT-R) [1]: 0.02 nM | hAMYR3 EC50 [nM] (cAMP formation, 1321N1 cells expressing hAMYR3) [2]: 0.009 nM

B4: Compound 45 (peptide)
peptide: {C20 diacid-γGlu}-R[Dap]GTATDATERLAHFLQRSSF[Sar]A[NMeI]LSSTEVGSNT[Hyp]-NH2
modifications: lactam 2-7
SMILES: CC[C@H](C)[C@@H](C(=O)N[C@@H](CC(C)C)C(=O)N[C@@H](CO)C(=O)N[C@@H](CO)C(=O)N[C@H](C(=O)N[C@@H](CCC(=O)O)C(=O)N[C@H](C(=O)NCC(=O)N[C@@H](CO)C(=O)N[C@@H](CC(N)=O)C(=O)N[C@H](C(=O)N1C[C@H](O)C[C@H]1C(N)=O)[C@@H](C)O)C(C)C)[C@@H](C)O)N(C)C(=O)[C@H](C)NC(=O)CN(C)C(=O)[C@H](Cc1ccccc1)NC(=O)[C@H](CO)NC(=O)[C@H](CO)NC(=O)[C@H](CCCNC(=N)N)NC(=O)[C@H](CCC(N)=O)NC(=O)[C@H](CC(C)C)NC(=O)[C@H](Cc1ccccc1)NC(=O)[C@H](Cc1c[nH]cn1)NC(=O)[C@H](C)NC(=O)[C@H](CC(C)C)NC(=O)[C@H](CCCNC(=N)N)NC(=O)[C@H](CCC(=O)O)NC(=O)[C@@H](NC(=O)[C@H](C)NC(=O)[C@@H]1CC(=O)NC[C@H](NC(=O)[C@H](CCCNC(=N)N)NC(=O)CC[C@H](NC(=O)CCCCCCCCCCCCCCCCCCC(=O)O)C(=O)O)C(=O)NCC(=O)N[C@@H]([C@@H](C)O)C(=O)N[C@@H](C)C(=O)N[C@@H]([C@@H](C)O)C(=O)N1)[C@@H](C)O
hCT-R EC50 [nM] (cAMP formation, 1321N1 cells expressing hCT-R) [1]: 299 nM | hAMYR3 EC50 [nM] (cAMP formation, 1321N1 cells expressing hAMYR3) [2]: 279 nM

B5: Compound 43 (peptide)
peptide: {C20 diacid-γGlu}-KDGTATKATQRLANFLQRSSF[Sar]A[NMeI]LSSTEVGSNT[Hyp]-NH2
modifications: lactam 2-7
SMILES: CC[C@H](C)[C@@H](C(=O)N[C@@H](CC(C)C)C(=O)N[C@@H](CO)C(=O)N[C@@H](CO)C(=O)N[C@H](C(=O)N[C@@H](CCC(=O)O)C(=O)N[C@H](C(=O)NCC(=O)N[C@@H](CO)C(=O)N[C@@H](CC(N)=O)C(=O)N[C@H](C(=O)N1C[C@H](O)C[C@H]1C(N)=O)[C@@H](C)O)C(C)C)[C@@H](C)O)N(C)C(=O)[C@H](C)NC(=O)CN(C)C(=O)[C@H](Cc1ccccc1)NC(=O)[C@H](CO)NC(=O)[C@H](CO)NC(=O)[C@H](CCCNC(=N)N)NC(=O)[C@H](CCC(N)=O)NC(=O)[C@H](CC(C)C)NC(=O)[C@H](Cc1ccccc1)NC(=O)[C@H](CC(N)=O)NC(=O)[C@H](C)NC(=O)[C@H](CC(C)C)NC(=O)[C@H](CCCNC(=N)N)NC(=O)[C@H](CCC(N)=O)NC(=O)[C@@H](NC(=O)[C@H](C)NC(=O)[C@@H]1CCCCNC(=O)C[C@H](NC(=O)[C@H](CCCCN)NC(=O)CC[C@H](NC(=O)CCCCCCCCCCCCCCCCCCC(=O)O)C(=O)O)C(=O)NCC(=O)N[C@@H]([C@@H](C)O)C(=O)N[C@@H](C)C(=O)N[C@@H]([C@@H](C)O)C(=O)N1)[C@@H](C)O
hCT-R EC50 [nM] (cAMP formation, 1321N1 cells expressing hCT-R) [1]: 0.021 nM | hAMYR3 EC50 [nM] (cAMP formation, 1321N1 cells expressing hAMYR3) [2]: 0.007 nM
